Results from PMC9482650, “Quantitative fragmentomics allow affinity mapping of interactomes” (Nature Communications, 2022).

T1: PDZD11, Q5EBL8
T1 sequence (Q5EBL8 42-139, limits assumed, looked up): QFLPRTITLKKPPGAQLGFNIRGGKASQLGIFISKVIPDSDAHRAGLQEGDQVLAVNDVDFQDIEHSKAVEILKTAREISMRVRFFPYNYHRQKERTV

T2: SHANK2, Q9UPX8
T2 sequence (Q9UPX8 621-730, limits assumed, looked up): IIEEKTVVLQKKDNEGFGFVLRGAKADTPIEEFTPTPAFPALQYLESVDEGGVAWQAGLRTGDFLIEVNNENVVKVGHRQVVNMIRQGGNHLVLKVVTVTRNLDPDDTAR

T3: PDLIM3, Q53GG5
T3 sequence (Q53GG5 1-94, limits assumed, looked up): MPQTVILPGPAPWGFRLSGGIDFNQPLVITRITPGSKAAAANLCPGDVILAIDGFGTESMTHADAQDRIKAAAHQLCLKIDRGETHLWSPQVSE

T4: INTU, Q9ULD6
T4 sequence (Q9ULD6 180-273, limits assumed, looked up): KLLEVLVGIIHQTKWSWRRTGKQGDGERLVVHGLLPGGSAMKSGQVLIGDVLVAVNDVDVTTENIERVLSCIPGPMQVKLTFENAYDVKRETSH

T5: PDZD2_6, O15018
T5 sequence (O15018 2745-2839, limits assumed, looked up): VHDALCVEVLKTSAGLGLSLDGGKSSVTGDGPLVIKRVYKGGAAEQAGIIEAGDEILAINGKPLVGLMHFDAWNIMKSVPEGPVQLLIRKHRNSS

T6: MPDZ_11, O75970
T6 sequence (O75970 1720-1817, limits assumed, looked up): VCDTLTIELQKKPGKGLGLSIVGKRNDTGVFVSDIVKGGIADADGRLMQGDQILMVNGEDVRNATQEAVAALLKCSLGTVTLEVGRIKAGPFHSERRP

T7: MLLT4, P55196
T7 sequence (P55196 1002-1103, limits assumed, looked up): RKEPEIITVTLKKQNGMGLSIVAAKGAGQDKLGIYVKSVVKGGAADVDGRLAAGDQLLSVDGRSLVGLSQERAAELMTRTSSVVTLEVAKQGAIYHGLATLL

T8: PREX2_2, Q70Z35
T8 sequence (Q70Z35 672-764, limits assumed, looked up): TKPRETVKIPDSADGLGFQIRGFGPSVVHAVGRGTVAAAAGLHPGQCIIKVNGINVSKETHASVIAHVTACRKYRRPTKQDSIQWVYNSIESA

T9: PARD6G, Q9BYG4
T9 sequence (Q9BYG4 153-261, limits assumed, looked up): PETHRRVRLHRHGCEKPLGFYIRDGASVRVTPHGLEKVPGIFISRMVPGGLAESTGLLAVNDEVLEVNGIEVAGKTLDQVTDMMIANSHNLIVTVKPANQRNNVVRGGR

T10: NHERF3_2, Q5T2W1
T10 sequence (Q5T2W1 129-225, limits assumed, looked up): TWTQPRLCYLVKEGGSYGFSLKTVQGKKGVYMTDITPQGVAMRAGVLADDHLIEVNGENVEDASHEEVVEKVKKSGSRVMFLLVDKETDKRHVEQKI

T11: PDZD8, Q8NEN9
T11 sequence (Q8NEN9 361-459, limits assumed, looked up): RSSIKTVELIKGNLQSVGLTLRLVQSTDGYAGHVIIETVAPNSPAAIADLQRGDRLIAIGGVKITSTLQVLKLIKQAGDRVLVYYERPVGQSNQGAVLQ

T12: LNX2_4, Q8N448
T12 sequence (Q8N448 595-690, limits assumed, looked up): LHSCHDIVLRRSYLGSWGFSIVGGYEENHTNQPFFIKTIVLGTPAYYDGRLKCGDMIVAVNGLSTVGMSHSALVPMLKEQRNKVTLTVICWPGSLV


biological target: O60759; test: holdup assay; design: key: below the threshold = too weak to quantify, mostly under pKd 3.1 to 4; conditions: plain residues with an end cap or a label only (N-terminal biotin on a linker: ttds)

pKd	Binder
below the threshold	MERLRVETDV [ARHGEF16, Q5VV41]
below the threshold	NYWPGKETQL [SLCO1C1, Q9NYB5]

biological target: T1, PDZD11, Q5EBL8; test: holdup assay; design: key: below the threshold = too weak to quantify, mostly under pKd 3.1 to 4; conditions: plain residues with an end cap or a label only (N-terminal biotin on a linker: ttds)

pKd	Binder
below the threshold	MERLRVETDV [ARHGEF16, Q5VV41]
below the threshold	NYWPGKETQL [SLCO1C1, Q9NYB5]

biological target: Q96JB8; test: holdup assay; design: key: below the threshold = too weak to quantify, mostly under pKd 3.1 to 4; conditions: plain residues with an end cap or a label only (N-terminal biotin on a linker: ttds)

pKd	Binder
below the threshold	MERLRVETDV [ARHGEF16, Q5VV41]
below the threshold	NYWPGKETQL [SLCO1C1, Q9NYB5]

biological target: T2, SHANK2, Q9UPX8; test: holdup assay; design: key: below the threshold = too weak to quantify, mostly under pKd 3.1 to 4; conditions: plain residues with an end cap or a label only (N-terminal biotin on a linker: ttds)

pKd	Binder
below the threshold	MERLRVETDV [ARHGEF16, Q5VV41]
4.64	NYWPGKETQL [SLCO1C1, Q9NYB5]

biological target: Q8TEW0; test: holdup assay; design: key: below the threshold = too weak to quantify, mostly under pKd 3.1 to 4; conditions: plain residues with an end cap or a label only (N-terminal biotin on a linker: ttds)

pKd	Binder
below the threshold	MERLRVETDV [ARHGEF16, Q5VV41]
below the threshold	NYWPGKETQL [SLCO1C1, Q9NYB5]

biological target: Q9Y3R0; test: holdup assay; design: key: below the threshold = too weak to quantify, mostly under pKd 3.1 to 4; conditions: plain residues with an end cap or a label only (N-terminal biotin on a linker: ttds)

pKd	Binder
below the threshold	MERLRVETDV [ARHGEF16, Q5VV41]
below the threshold	NYWPGKETQL [SLCO1C1, Q9NYB5]

biological target: T3, PDLIM3, Q53GG5; test: holdup assay; design: key: below the threshold = too weak to quantify, mostly under pKd 3.1 to 4; conditions: plain residues with an end cap or a label only (N-terminal biotin on a linker: ttds)

pKd	Binder
below the threshold	MERLRVETDV [ARHGEF16, Q5VV41]
below the threshold	NYWPGKETQL [SLCO1C1, Q9NYB5]

biological target: MAGI3_5, Q5TCQ9; test: holdup assay; design: key: below the threshold = too weak to quantify, mostly under pKd 3.1 to 4; conditions: plain residues with an end cap or a label only (N-terminal biotin on a linker: ttds)
Sequence (Q5TCQ9 847-941): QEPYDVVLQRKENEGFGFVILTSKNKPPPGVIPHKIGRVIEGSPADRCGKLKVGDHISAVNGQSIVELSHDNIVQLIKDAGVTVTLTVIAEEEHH

pKd	Binder
below the threshold	MERLRVETDV [ARHGEF16, Q5VV41]
below the threshold	NYWPGKETQL [SLCO1C1, Q9NYB5]

biological target: T4, INTU, Q9ULD6; test: holdup assay; design: key: below the threshold = too weak to quantify, mostly under pKd 3.1 to 4; conditions: plain residues with an end cap or a label only (N-terminal biotin on a linker: ttds)

pKd	Binder
4.32	MERLRVETDV [ARHGEF16, Q5VV41]
below the threshold	NYWPGKETQL [SLCO1C1, Q9NYB5]

biological target: T5, PDZD2_6, O15018; test: holdup assay; design: key: below the threshold = too weak to quantify, mostly under pKd 3.1 to 4; conditions: plain residues with an end cap or a label only (N-terminal biotin on a linker: ttds)

pKd	Binder
below the threshold	MERLRVETDV [ARHGEF16, Q5VV41]
below the threshold	NYWPGKETQL [SLCO1C1, Q9NYB5]

biological target: T6, MPDZ_11, O75970; test: holdup assay; design: key: below the threshold = too weak to quantify, mostly under pKd 3.1 to 4; conditions: plain residues with an end cap or a label only (N-terminal biotin on a linker: ttds)

pKd	Binder
below the threshold	MERLRVETDV [ARHGEF16, Q5VV41]
below the threshold	NYWPGKETQL [SLCO1C1, Q9NYB5]

biological target: Q9C0E4; test: holdup assay; design: key: below the threshold = too weak to quantify, mostly under pKd 3.1 to 4; conditions: plain residues with an end cap or a label only (N-terminal biotin on a linker: ttds)

pKd	Binder
below the threshold	MERLRVETDV [ARHGEF16, Q5VV41]
below the threshold	NYWPGKETQL [SLCO1C1, Q9NYB5]

biological target: Q8IUC4; test: holdup assay; design: key: below the threshold = too weak to quantify, mostly under pKd 3.1 to 4; conditions: plain residues with an end cap or a label only (N-terminal biotin on a linker: ttds)

pKd	Binder
below the threshold	MERLRVETDV [ARHGEF16, Q5VV41]
below the threshold	NYWPGKETQL [SLCO1C1, Q9NYB5]

biological target: T7, MLLT4, P55196; test: holdup assay; design: key: below the threshold = too weak to quantify, mostly under pKd 3.1 to 4; conditions: plain residues with an end cap or a label only (N-terminal biotin on a linker: ttds)

pKd	Binder
below the threshold	MERLRVETDV [ARHGEF16, Q5VV41]
below the threshold	NYWPGKETQL [SLCO1C1, Q9NYB5]

biological target: Q9UMS6; test: holdup assay; design: key: below the threshold = too weak to quantify, mostly under pKd 3.1 to 4; conditions: plain residues with an end cap or a label only (N-terminal biotin on a linker: ttds)

pKd	Binder
below the threshold	MERLRVETDV [ARHGEF16, Q5VV41]
below the threshold	NYWPGKETQL [SLCO1C1, Q9NYB5]

biological target: T8, PREX2_2, Q70Z35; test: holdup assay; design: key: below the threshold = too weak to quantify, mostly under pKd 3.1 to 4; conditions: plain residues with an end cap or a label only (N-terminal biotin on a linker: ttds)

pKd	Binder
4.17	MERLRVETDV [ARHGEF16, Q5VV41]
below the threshold	NYWPGKETQL [SLCO1C1, Q9NYB5]

biological target: Q9P227; test: holdup assay; design: key: below the threshold = too weak to quantify, mostly under pKd 3.1 to 4; conditions: plain residues with an end cap or a label only (N-terminal biotin on a linker: ttds)

pKd	Binder
below the threshold	MERLRVETDV [ARHGEF16, Q5VV41]
below the threshold	NYWPGKETQL [SLCO1C1, Q9NYB5]

biological target: Q92614; test: holdup assay; design: key: below the threshold = too weak to quantify, mostly under pKd 3.1 to 4; conditions: plain residues with an end cap or a label only (N-terminal biotin on a linker: ttds)

pKd	Binder
below the threshold	MERLRVETDV [ARHGEF16, Q5VV41]
below the threshold	NYWPGKETQL [SLCO1C1, Q9NYB5]

biological target: O00560; test: holdup assay; design: key: below the threshold = too weak to quantify, mostly under pKd 3.1 to 4; conditions: plain residues with an end cap or a label only (N-terminal biotin on a linker: ttds)

pKd	Binder
below the threshold	MERLRVETDV [ARHGEF16, Q5VV41]
below the threshold	NYWPGKETQL [SLCO1C1, Q9NYB5]

biological target: T9, PARD6G, Q9BYG4; test: holdup assay; design: key: below the threshold = too weak to quantify, mostly under pKd 3.1 to 4; conditions: plain residues with an end cap or a label only (N-terminal biotin on a linker: ttds)

pKd	Binder
below the threshold	MERLRVETDV [ARHGEF16, Q5VV41]
below the threshold	NYWPGKETQL [SLCO1C1, Q9NYB5]

biological target: Q9ULJ8; test: holdup assay; design: key: below the threshold = too weak to quantify, mostly under pKd 3.1 to 4; conditions: plain residues with an end cap or a label only (N-terminal biotin on a linker: ttds)

pKd	Binder
below the threshold	MERLRVETDV [ARHGEF16, Q5VV41]
below the threshold	NYWPGKETQL [SLCO1C1, Q9NYB5]

biological target: T10, NHERF3_2, Q5T2W1; test: holdup assay; design: key: below the threshold = too weak to quantify, mostly under pKd 3.1 to 4; conditions: plain residues with an end cap or a label only (N-terminal biotin on a linker: ttds)

pKd	Binder
below the threshold	MERLRVETDV [ARHGEF16, Q5VV41]
below the threshold	NYWPGKETQL [SLCO1C1, Q9NYB5]

biological target: T11, PDZD8, Q8NEN9; test: holdup assay; design: key: below the threshold = too weak to quantify, mostly under pKd 3.1 to 4; conditions: plain residues with an end cap or a label only (N-terminal biotin on a linker: ttds)

pKd	Binder
below the threshold	MERLRVETDV [ARHGEF16, Q5VV41]
below the threshold	NYWPGKETQL [SLCO1C1, Q9NYB5]

biological target: T12, LNX2_4, Q8N448; test: holdup assay; design: key: below the threshold = too weak to quantify, mostly under pKd 3.1 to 4; conditions: plain residues with an end cap or a label only (N-terminal biotin on a linker: ttds)

pKd	Binder
below the threshold	MERLRVETDV [ARHGEF16, Q5VV41]
4.73	NYWPGKETQL [SLCO1C1, Q9NYB5]

biological target: O00233; test: holdup assay; design: key: below the threshold = too weak to quantify, mostly under pKd 3.1 to 4; conditions: plain residues with an end cap or a label only (N-terminal biotin on a linker: ttds)

pKd	Binder
below the threshold	MERLRVETDV [ARHGEF16, Q5VV41]
below the threshold	NYWPGKETQL [SLCO1C1, Q9NYB5]
